The text below walks through data of paper PMC2782360.

For assay [1], the target named is recombinant human 37 kDa laminin receptor precursor (37LRP) (human) (UniProt P08865). Put plainly: SPR.
For assay [2], the target named is native 67 kDa laminin receptor (67LR) shed from T47D cells (human (endogenous in T47D)) (UniProt P08865). Kind of assay: SPR.

For the substance human laminin (complex), the Kd came out at 410 nM in assay [1] and 320 nM in assay [2].
